Assay [1] concerns the target T1, recombinant human TNFα (human, UniProt P01375 77-233).
T1 construct: also called biotinylated TNFα; TNFαtrimer
The assay can be described thus: inhibition ELISA, blocking of biotinylated TNFα binding to coated TNFRII-Fc. (An ELISA detects its analyte on a solid surface through an enzyme-linked reagent.)

Assay [2] has as its target T1, recombinant human TNFα. The assay can be described thus: cell-based or functional assay.
For assay [3], the target named is T1, recombinant human TNFα. The assay can be described thus: inhibition ELISA, blocking of biotinylated TNFα binding to coated TNFRI-Fc; relative to infliximab.
Assay [4] has as its target T1, recombinant human TNFα. The assay can be described thus: inhibition ELISA: biotinylated human TNFα pre-incubated with serially diluted scFv, binding of unblocked TNFα to coated TNFRII-Fc detected.
The target in assay [5] is T1, recombinant human TNFα. Kind of assay: cell-based or functional assay. This is another data set of the same source.
Assay [6] concerns the target Rhesus monkey TNFα (Rhesus monkey (Macaca mulatta), UniProt P48094 77-233). Kind of assay: cell-based or functional assay.
Assay [7] has as its target recombinant Cynomolgus monkey TNFα (Cynomolgus monkey (Macaca fascicularis), UniProt P79337 77-233). The assay can be described thus: cell-based or functional assay.
In assay [8] the target is T1, recombinant human TNFα. The assay can be described thus: cell-based or functional assay. This is another data set of the same source.
The target of assay [9] is T1, recombinant human TNFα. Kind of assay: inhibition ELISA, blocking of biotinylated TNFα binding to coated TNFRII-Fc; relative to infliximab.

Consider two molecules from patent publication US20230272059A1 (TILLOTTS PHARMA, published 2023).

Substitutions are numbered along the chain they refer to. Where two headings read alike, the source gives them in different places.

T1 sequence (P01375 77-233 limits assumed): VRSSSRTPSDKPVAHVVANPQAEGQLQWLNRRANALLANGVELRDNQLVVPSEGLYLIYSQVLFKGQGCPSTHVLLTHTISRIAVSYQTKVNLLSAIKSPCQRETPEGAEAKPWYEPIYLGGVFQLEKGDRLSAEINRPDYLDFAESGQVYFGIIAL
Rhesus monkey TNFα, sequence (P48094 77-233 limits assumed): as the sequence (P01375 77-233 limits assumed) above, with R44T, T72N, R138L counted along it
recombinant Cynomolgus monkey TNFα, sequence (P79337 77-233 limits assumed): as the sequence (P01375 77-233 limits assumed) above, with L37V, R44T, T72N, R138L counted along it

B1: humanized scFv 16-22-H05-sc02 (scFv)
scFv: MDIQMTQSPSSLSASVGDRVTIKCQASQSIFSGLAWYQQKPGKAPKLLIYGASKLASGVPSRFSGSGSGTEFTLTISGLQPADFATYYCQSYYYSSSSSDGSYAFGGGTKLTVLGGGGGSGGGGSGGGGSGGGGSEVQLVESGGGLVQPGGSLRLSCKASGIDFNNYGIGWVRQAPGKGLEWITYIYPGFAITNFANSVKGRFTISSDNSKNTVYLQMNSLRAEDTAVYYCARDPVYATSSGYFDLWGQGTLVTVSS
notes: also called 16-22-H05-sc02 (STR); structural graft
Take B1: the “IC [ng] (head cut off; probably IC50 [ng/mL])” value in assay [1] is 20 ng (head cut off). In addition, the “L929 assay, rel. IC50 (IC50 infliximab / IC50 scFv, ng/mL)” value in [2] worked out at 13.1. The “rel. IC50 (IC50 infliximab / IC50 scFv, ng/mL)” value in [3] was 3.5; in assay [9], 5.7. Moreover, the “IC50 (read off the curve)” value in assay [4] is ~20 ng/mL. For the same molecule, the “IC50 (read off the curve) (L929 assay, % growth)” value is ~0.5 ng/mL in assay [5], ~3 ng/mL in assay [6], ~3 ng/mL in [7] and ~0.6 ng/mL in assay [8].

B2: humanized scFv 16-22-H05-sc04 (scFv)
scFv: B1 scFv with K23T
notes: also called 16-22-H05-sc04 (CDR/STR); domain shuffled variant
Regarding B2, the “IC [ng] (head cut off; probably IC50 [ng/mL])” value in assay [1] was 32 ng (head cut off). Besides, the “L929 assay, rel. IC50 (IC50 infliximab / IC50 scFv, ng/mL)” value in assay [2] turned out to be 14.6. Further, the results for the “rel. IC50 (IC50 infliximab / IC50 scFv, ng/mL)” value in assay [3] and in [9] were 2.8 and 3.5, respectively. Further, the “IC50 (read off the curve)” value in assay [4] is ~30 ng/mL. The “IC50 (read off the curve) (L929 assay, % growth)” value was ~0.5 ng/mL in [5], ~3 ng/mL in assay [6], ~3 ng/mL in [7] and ~0.6 ng/mL in assay [8].
